B1: C-C chemokine receptor type 2 (Homo sapiens), P41597-2 (parent)
chain: MLSTSRSRFIRNTNESGEEVTTFFDYDYGAPCHKFDVKQIGAQLLPPLYSLVFIFGFVGNMLVVLILINCKKLKCLTDIYLLNLAISDLLFLITLPLWAHSAANEWVFGNAMCKLFTGLYHIGYFGGIFFIILLTIDRYLAIVHAVFALKARTVTFGVVTSVITWLVAVFASVPGIIFTKCQKEDSVYVCGPYFPRGWNNFHTIMRNILGLVLPLLIMVICYSGILKTLLRCRNEKKRHRAVRVIFTIMIVYFLFWTPYNIVILLNTFQEFFGLSNCESTSQLDQATQVTETLGMTHCCINPIIYAFVGEKFRRYLSVFFRKHITKRFCKQCPVFYRETVDGVTSTNTPSTGEQEVSAGL
partner: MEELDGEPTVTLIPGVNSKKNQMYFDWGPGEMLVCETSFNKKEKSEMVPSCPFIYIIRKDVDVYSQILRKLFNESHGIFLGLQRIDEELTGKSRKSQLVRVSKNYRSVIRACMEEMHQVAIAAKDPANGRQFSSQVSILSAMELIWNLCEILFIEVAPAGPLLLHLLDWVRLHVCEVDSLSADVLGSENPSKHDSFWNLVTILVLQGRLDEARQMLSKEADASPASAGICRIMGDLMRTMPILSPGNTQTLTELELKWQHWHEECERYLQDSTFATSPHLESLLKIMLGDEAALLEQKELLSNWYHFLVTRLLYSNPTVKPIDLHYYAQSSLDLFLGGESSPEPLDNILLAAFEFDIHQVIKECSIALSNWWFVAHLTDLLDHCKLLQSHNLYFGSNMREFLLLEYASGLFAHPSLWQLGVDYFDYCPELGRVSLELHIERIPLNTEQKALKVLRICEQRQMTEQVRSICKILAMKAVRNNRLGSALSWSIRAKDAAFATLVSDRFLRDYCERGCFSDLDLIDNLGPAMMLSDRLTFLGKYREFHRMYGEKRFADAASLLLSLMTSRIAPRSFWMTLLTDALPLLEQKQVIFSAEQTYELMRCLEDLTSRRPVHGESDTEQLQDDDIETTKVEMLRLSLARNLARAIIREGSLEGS

Variants of: B1
Details: with nup85_human NUP85, Q9BW27
With MLSTSRSRFIRNTNESGEEVTTFFDYDYGAPCHKFDVKQIGAQLLPPLYSLVFIFGFVGNMLVVLILINCKKLKCLTDIYLLNLAISDLLFLITLPLWAHSAANEWVFGNAMCKLFTGLYHIGYFGGIFFIILLTIDRYLAIVHAVFALKARTVTFGVVTSVITWLVAVFASVPGIIFTKCQKEDSVYVCGPYFPRGWNNFHTIMRNILGLVLPLLIMVICYSGILKTLLRCRNEKKRHRAVRVIFTIMIVYFLFWTPYNIVILLNTFQEFFGLSNCESTSQLDQATQVTETLGMTHCCINPIIYAFVGEKFRRYLSVDFRKHITKRFCKQCPVFYRETVDGVTSTNTPSTGEQEVSAGL [F319D] the “effect of a mutation on the interaction” value was “decreasing interaction strength”.

Variants of: B1
Details: with nup85_human NUP85, Q9BW27
Remark: another data set of the same source
MLSTSRSRFIRNTNESGEEVTTFFDYDYGAPCHKFDVKQIGAQLLPPLYSLVFIFGFVGNMLVVLILINCKKLKCLTDIYLLNLAISDLLFLITLPLWAHSAANEWVFGNAMCKLFTGLYHIGYFGGIFFIILLTIDRYLAIVHAVFALKARTVTFGVVTSVITWLVAVFASVPGIIFTKCQKEDSVYVCGPYFPRGWNNFHTIMRNILGLVLPLLIMVICYSGILKTLLRCRNEKKRHRAVRVIFTIMIVYFLFWTPYNIVILLNTFQEFFGLSNCESTSQLDQATQVTETLGMTHCCINPIIYAFVGEKFRRYTSVFFRKHITKRFCKQCPVFYRETVDGVTSTNTPSTGEQEVSAGL [L316T] was tested, and the “effect of a mutation on the interaction” value was “decreasing interaction strength”.

— IntAct's records for PubMed 25283965
